{"source": "patent US20180371086A1", "about": "(Gilead, published 2018)", "key": {"[1]": {"target": "gp120 (HT593) expressed on human embryonic kidney (HEK) cells (HIV-1)", "experiment": "cell-based or functional assay"}, "[2]": {"target": "T1, HIV-1 Env gp120 of virus WITO, on infected cells (HIV-1)", "experiment": "cell-based or functional assay"}, "[3]": {"target": "HIV-1 Env gp120 of virus 92US727, on infected cells (HIV-1)", "experiment": "cell-based or functional assay"}, "[4]": {"target": "HIV-1 Env gp120 of virus CH058, on infected cells (HIV-1)", "experiment": "cell-based or functional assay"}, "[5]": {"target": "T1, HIV-1 Env gp120 of virus WITO, on …", "experiment": "cell-based or functional assay", "remark": "listed apart in the source"}, "[6]": {"target": "HIV-1 Env gp120 of virus 1489, on infected cells (HIV-1)", "experiment": "cell-based or functional assay"}, "[7]": {"target": "HIV-1 Env gp120 of virus 7552, on infected cells (HIV-1)", "experiment": "cell-based or functional assay"}, "[8]": {"target": "HIV-1 Env gp120 of virus 7015, on infected cells (HIV-1)", "experiment": "cell-based or functional assay"}, "[9]": {"target": "HIV-1 Env of subtype B isolate 92US712 (HIV-1)", "experiment": "cell-based or functional assay"}, "[10]": {"target": "HIV-1 Env of subtype B isolate 92US727 (HIV-1)", "experiment": "cell-based or functional assay"}, "[11]": {"target": "HIV-1 Env of the lab adapted HIV-1 BaL strain (HIV-1)", "experiment": "cell-based or functional assay"}, "[12]": {"target": "HIV-1 Env of subtype B isolate 93HT593 (HIV-1)", "experiment": "cell-based or functional assay"}, "[13]": {"target": "HIV-1 Env of subtype B isolate 92US657 (HIV-1)", "experiment": "cell-based or functional assay"}, "Human FcRn [14]": {"target": "T2, Human FcRn (human, UniProt P55899 24-297; P61769 21-119)", "T2 construct": "also called neonatal Fc receptor", "T2 sequence (P55899 24-297 limits assumed, chain 1 of 2)": "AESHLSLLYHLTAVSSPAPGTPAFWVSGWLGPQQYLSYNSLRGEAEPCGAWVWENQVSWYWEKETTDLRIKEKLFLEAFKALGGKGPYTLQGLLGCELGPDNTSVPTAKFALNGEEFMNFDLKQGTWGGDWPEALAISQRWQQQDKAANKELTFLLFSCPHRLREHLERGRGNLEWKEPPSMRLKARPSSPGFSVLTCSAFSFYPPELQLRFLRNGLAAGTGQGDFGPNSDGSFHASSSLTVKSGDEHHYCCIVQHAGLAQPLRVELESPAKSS", "T2 sequence (P61769 21-119 limits assumed, chain 2 of 2)": "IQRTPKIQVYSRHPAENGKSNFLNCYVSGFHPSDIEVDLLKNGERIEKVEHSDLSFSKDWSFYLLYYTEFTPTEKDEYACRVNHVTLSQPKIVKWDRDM", "experiment": "ELISA, FcRn coated on plate; pH 7.0/6.0 ratio against that of PGT121", "protocol": "(§1) The binding of antibodies to FcRn of various antibody variants at different pHs was determined. A 96-well Maxisorp plate was coated with 100 ul of 5 μg/ml FcRn. The plate was incubated overnight at 4° C., and then blocked with 4% skim milk for 2 hr at room temperature after washing 3 times with 0.05% Tween 20 washing buffer. […] The plate was then washed 3 times and 100 μL of Fab-anti-human Fab-HRP or Goat anti-human IgG-HRP secondary antibody diluted in 4% skimmed milk was added. Plates were then incubated 50 min at room temperature, washed three times, and 100 μL fresh TMB substrate was added. Plates were developed for 3 minutes on bench with gentle shaking. Plate was quenched with 100 μL 1M HCl, shaken briefly, read at A450 on a spectramax m5 plate reader."}, "Human FcRn [15]": {"target": "T2, Human FcRn", "experiment": "ELISA, FcRn coated on plate; ratio of EC50 at pH 7.0 to pH 6.0", "protocol": "as §1"}, "Human FcRn [16]": {"target": "T2, Human FcRn", "experiment": "ELISA, FcRn coated on plate, pH 7.0", "protocol": "as §1"}, "Human FcRn [17]": {"target": "T2, Human FcRn", "experiment": "ELISA, FcRn coated on plate, pH 6.0", "protocol": "as §1"}}}
{"binder": "Variant 2 (DS -> DF) (antibody, human IgG1, lambda, V domains shown) VH: QMQLQESGPGLVKPSETLSLTCSVSGASISDSYWSWIRRSPGKGLEWIGYVHKSGDTNYNPSLKSRVHLSLDTSKNQVSLSLTGVTAADSGKYYCARTLHGRRIYGIVAFNEWFTYFYMDVWGTGTQVTVSS VL: SDISVAPGETARISCGEKSLGSRAVQWYQHRAGQAPSLIIYNNQDRPSGIPERFSGSPDFRPGTTATLTITSVEAGDEADYYCHIWDSRVPTKWVFGGGTTLTVLG", "values": [{"measurement": "% ADCC Activity (ADCC reporter cell based assay; sample stressed at 25° C. for 4 weeks, relative to its untreated control)", "setting": "[1]", "result": 96, "unit": "%"}]}
{"binder": "Variant 1 (DS -> DY) (antibody, human IgG1, lambda, V domains shown) VH: QMQLQESGPGLVKPSETLSLTCSVSGASISDSYWSWIRRSPGKGLEWIGYVHKSGDTNYNPSLKSRVHLSLDTSKNQVSLSLTGVTAADSGKYYCARTLHGRRIYGIVAFNEWFTYFYMDVWGTGTQVTVSS VL: SDISVAPGETARISCGEKSLGSRAVQWYQHRAGQAPSLIIYNNQDRPSGIPERFSGSPDYRPGTTATLTITSVEAGDEADYYCHIWDSRVPTKWVFGGGTTLTVLG", "values": [{"measurement": "% ADCC Activity (ADCC reporter cell based assay; sample stressed at 25° C. for 4 weeks, relative to its untreated control)", "setting": "[1]", "result": 100, "unit": "%"}]}
{"binder": "Variant 3 (DS->DT) (antibody, human IgG1, lambda, V domains shown) VH: QMQLQESGPGLVKPSETLSLTCSVSGASISDSYWSWIRRSPGKGLEWIGYVHKSGDTNYNPSLKSRVHLSLDTSKNQVSLSLTGVTAADSGKYYCARTLHGRRIYGIVAFNEWFTYFYMDVWGTGTQVTVSS VL: SDISVAPGETARISCGEKSLGSRAVQWYQHRAGQAPSLIIYNNQDRPSGIPERFSGSPDTRPGTTATLTITSVEAGDEADYYCHIWDSRVPTKWVFGGGTTLTVLG", "values": [{"measurement": "% ADCC Activity (ADCC reporter cell based assay; sample stressed at 25° C. for 4 weeks, relative to its untreated control)", "setting": "[1]", "result": 104, "unit": "%"}]}
{"binder": "Variant 4 (DS->GS) (antibody, human IgG1, lambda, V domains shown) VH: QMQLQESGPGLVKPSETLSLTCSVSGASISDSYWSWIRRSPGKGLEWIGYVHKSGDTNYNPSLKSRVHLSLDTSKNQVSLSLTGVTAADSGKYYCARTLHGRRIYGIVAFNEWFTYFYMDVWGTGTQVTVSS VL: SDISVAPGETARISCGEKSLGSRAVQWYQHRAGQAPSLIIYNNQDRPSGIPERFSGSPGSRPGTTATLTITSVEAGDEADYYCHIWDSRVPTKWVFGGGTTLTVLG", "values": [{"measurement": "% ADCC Activity (ADCC reporter cell based assay; sample stressed at 25° C. for 4 weeks, relative to its untreated control)", "setting": "[1]", "result": 95, "unit": "%"}]}
{"binder": "Exemplary gp120×CD3 Duobody® (bispecific antibody, human IgG1, lambda) heavy 1: QMQLQESGPGLVKPSETLSLTCSVSGASISDSYWSWIRRSPGKGLEWIGYVHKSGDTNYNPSLKSRVHLSLDTSKNQVSLSLTGVTAADSGKYYCARTLHGRRIYGIVAFNEWFTYFYMDVWGTGTQVTVSSASTKGPSVFPLAPSSKSTSGGTAALGCLVKDYFPEPVTVSWNSGALTSGVHTFPAVLQSSGLYSLSSVVTVPSSSLGTQTYICNVNHKPSNTKVDKRVEPKSCDKTHTCPPCPAPEFEGGPSVFLFPPKPKDTLMISRTPEVTCVVVAVSHEDPEVKFNWYVDGVEVHNAKTKPREEQYNSTYRVVSVLTVLHQDWLNGKEYKCKVSNKALPAPIEKTISKAKGQPREPQVYTLPPSREEMTKNQVSLTCLVKGFYPSDIAVEWESNGQPENNYKTTPPVLDSDGSFFLYSRLTVDKSRWQQGNVFSCSVMHEALHNHYTQKSLSLSPGK light 1: not shown heavy 2: not shown light 2: not shown", "values": [{"measurement": "killing EC50; HIV-infected CD4 T cells (WITO); effector cells Eff Memory CD4", "setting": "[2]", "result": 0.02, "unit": "µg/mL"}, {"measurement": "killing EC50; HIV-infected CD4 T cells (WITO); effector cells Memory CD4", "setting": "[2]", "result": 0.02, "unit": "µg/mL"}, {"measurement": "killing EC50; HIV-infected CD4 T cells (WITO); effector cells Memory CD8", "setting": "[2]", "result": 0.02, "unit": "µg/mL"}, {"measurement": "killing EC50; HIV-infected CD4 T cells (WITO); effector cells Naïve CD4", "setting": "[2]", "result": 0.03, "unit": "µg/mL"}, {"measurement": "killing EC50; HIV-infected CD4 T cells (WITO); effector cells γ Δ CD4", "setting": "[2]", "result": 0.09, "unit": "µg/mL"}, {"measurement": "Potency (IC50) of killing HIV-infected cells; PBMC-derived effector cells; donor 1004344; virus 92US727", "setting": "[3]", "result": 0.012, "unit": "µg/mL"}, {"measurement": "Potency (IC50) of killing HIV-infected cells; tonsil-derived effector cells; donor 1004344; virus 92US727", "setting": "[3]", "result": 0.051, "unit": "µg/mL"}, {"measurement": "Potency (IC50) of killing HIV-infected cells; PBMC-derived effector cells; donor 1003277; virus CHO58", "setting": "[4]", "result": 0.002, "unit": "µg/mL"}, {"measurement": "Potency (IC50) of killing HIV-infected cells; PBMC-derived effector cells; donor 1004344; virus CHO58", "setting": "[4]", "result": 0.001, "unit": "µg/mL"}, {"measurement": "Potency (IC50) of killing HIV-infected cells; tonsil-derived effector cells; donor 1003277; virus CHO58", "setting": "[4]", "result": 0.024, "unit": "µg/mL"}, {"measurement": "Potency (IC50) of killing HIV-infected cells; tonsil-derived effector cells; donor 1004344; virus CHO58", "setting": "[4]", "result": 0.031, "unit": "µg/mL"}, {"measurement": "killing EC50; HIV-infected CEM-NKr-CCR5-LucR CD4 T cells; PBMC donor 4176; virus WITO", "setting": "[5]", "result": 0.248, "unit": "µg/mL"}, {"measurement": "killing EC50; HIV-infected CEM-NKr-CCR5-LucR CD4 T cells; PBMC donor 4288; virus WITO", "setting": "[5]", "result": 0.046, "unit": "µg/mL"}, {"measurement": "killing EC50; HIV-infected CEM-NKr-CCR5-LucR CD4 T cells; PBMC donor 4176; virus 1489", "setting": "[6]", "result": 0.028, "unit": "µg/mL"}, {"measurement": "killing EC50; HIV-infected CEM-NKr-CCR5-LucR CD4 T cells; PBMC donor 4288; virus 1489", "setting": "[6]", "result": 0.005, "unit": "µg/mL"}, {"measurement": "killing EC50; HIV-infected CEM-NKr-CCR5-LucR CD4 T cells; PBMC donor 4176; virus 7552", "setting": "[7]", "result": 0.038, "unit": "µg/mL"}, {"measurement": "killing EC50; HIV-infected CEM-NKr-CCR5-LucR CD4 T cells; PBMC donor 4288; virus 7552", "setting": "[7]", "result": 0.003, "unit": "µg/mL"}, {"measurement": "killing EC50; HIV-infected CEM-NKr-CCR5-LucR CD4 T cells; PBMC donor 4176; virus 7015", "setting": "[8]", "result": 1.04, "unit": "µg/mL"}, {"measurement": "killing EC50; HIV-infected CEM-NKr-CCR5-LucR CD4 T cells; PBMC donor 4288; virus 7015", "setting": "[8]", "result": 0.446, "unit": "µg/mL"}]}
{"binder": "PGT121.56 (antibody, human IgG1, lambda) heavy: QMQLQESGPGLVKPSETLSLTCSVSGASISDSYWSWIRRSPGKGLEWIGYVHKSGDTNYSPSLKSRVNLSLDTSKNQVSLSLVAATAADSGKYYCARTLHGRRIYGIVAFNEWFTYFYMDVWGNGTQVTVSSASTKGPSVFPLAPSSKSTSGGTAALGCLVKDYFPEPVTVSWNSGALTSGVHTFPAVLQSSGLYSLSSVVTVPSSSLGTQTYICNVNHKPSNTKVDKKVEPKSCDKTHTCPPCPAPELLAGPDVFLFPPKPKDTLMISRTPEVTCVVVDVSHEDPEVKFNWYVDGVEVHNAKTKPREEQYNSTYRVVSVLTVLHQDWLNGKEYKCKVSNKALPLPEEKTISKAKGQPREPQVYTLPPSREEMTKNQVSLTCLVKGFYPSDIAVEWESNGQPENNYKTTPPVLDSDGSFFLYSKLTVDKSRWQQGNVFSCSVLHEALHSHYTQKSLSLSPGK light: not shown", "note": "[PGT121.56, listing 1 of 2 here]", "values": [{"measurement": "Neutralization potency, IC50", "setting": "[9]", "result": 0.019, "unit": "µg/mL"}, {"measurement": "Neutralization potency, IC50", "setting": "[10]", "result": 0.011, "unit": "µg/mL"}, {"measurement": "Neutralization potency, IC50", "setting": "[11]", "result": 0.02, "unit": "µg/mL"}, {"measurement": "Neutralization potency, IC50", "setting": "[12]", "result": 0.164, "unit": "µg/mL"}, {"measurement": "Neutralization potency, IC50", "setting": "[13]", "result": 0.142, "unit": "µg/mL"}]}
{"binder": "PGT121.56 (antibody, human IgG1, lambda) heavy: QMQLQESGPGLVKPSETLSLTCSVSGASISDSYWSWIRRSPGKGLEWIGYVHKSGDTNYSPSLKSRVNLSLDTSKNQVSLSLVAATAADSGKYYCARTLHGRRIYGIVAFNEWFTYFYMDVWGNGTQVTVSSASTKGPSVFPLAPSSKSTSGGTAALGCLVKDYFPEPVTVSWNSGALTSGVHTFPAVLQSSGLYSLSSVVTVPSSSLGTQTYICNVNHKPSNTKVDKKVEPKSCDKTHTCPPCPAPELLAGPDVFLFPPKPKDTLMISRTPEVTCVVVDVSHEDPEVKFNWYVDGVEVHNAKTKPREEQYNSTYRVVSVLTVLHQDWLNGKEYKCKVSNKALPLPEEKTISKAKGQPREPQVYTLPPSREEMTKNQVSLTCLVKGFYPSDIAVEWESNGQPENNYKTTPPVLDSDGSFFLYSKLTVDKSRWQQGNVFSCSVLHEALHSHYTQKSLSLSPGK light: not shown", "note": "[PGT121.56, listing 2 of 2 here]", "values": [{"measurement": "Fold vs PGT121", "setting": "Human FcRn [14]", "result": 7, "unit": "fold"}, {"measurement": "Ratio pH 7.0/6.0", "setting": "Human FcRn [15]", "result": 217}, {"measurement": "EC50", "setting": "Human FcRn [16]", "result": 102, "unit": "nM"}, {"measurement": "EC50", "setting": "Human FcRn [17]", "result": 0.47, "unit": "nM"}]}
